According to US20230340055A1 (published 2023):

How the values were obtained:
[1] = molecular target: T1, IL-2Rβγ (dimeric intermediate affinity IL-2 receptor), human, on cells (human, UniProt P14784 27-551; P31785 23-369); experiment: cell-based or functional assay
T1 sequence (looked up) 1: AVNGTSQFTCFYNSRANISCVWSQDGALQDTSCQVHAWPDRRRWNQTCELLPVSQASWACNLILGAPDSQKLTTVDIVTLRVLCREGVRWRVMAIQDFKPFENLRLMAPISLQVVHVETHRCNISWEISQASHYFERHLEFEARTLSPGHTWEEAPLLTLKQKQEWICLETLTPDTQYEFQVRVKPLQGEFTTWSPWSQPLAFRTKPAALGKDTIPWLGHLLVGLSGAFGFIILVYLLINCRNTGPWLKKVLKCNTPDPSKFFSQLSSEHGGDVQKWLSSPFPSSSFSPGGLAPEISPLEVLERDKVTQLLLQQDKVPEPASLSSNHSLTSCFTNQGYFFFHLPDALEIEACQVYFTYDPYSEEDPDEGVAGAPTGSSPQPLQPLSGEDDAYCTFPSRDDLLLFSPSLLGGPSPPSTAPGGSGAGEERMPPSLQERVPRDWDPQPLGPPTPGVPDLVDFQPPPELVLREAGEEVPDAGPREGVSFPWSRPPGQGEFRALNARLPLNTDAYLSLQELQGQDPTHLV
T1 sequence (looked up) 2: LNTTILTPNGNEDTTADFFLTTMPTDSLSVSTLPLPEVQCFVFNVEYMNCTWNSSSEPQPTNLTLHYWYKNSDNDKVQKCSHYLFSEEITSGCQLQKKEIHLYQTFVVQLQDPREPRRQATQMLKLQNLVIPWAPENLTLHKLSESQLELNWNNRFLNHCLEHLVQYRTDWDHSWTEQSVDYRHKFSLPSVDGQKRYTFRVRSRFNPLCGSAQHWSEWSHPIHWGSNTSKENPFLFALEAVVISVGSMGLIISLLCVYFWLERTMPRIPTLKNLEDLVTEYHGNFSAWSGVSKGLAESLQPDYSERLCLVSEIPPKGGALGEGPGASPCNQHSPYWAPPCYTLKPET

[2] = molecular target: T2, IL-2Rαβγ (trimeric high-affinity IL-2 receptor), human, on cells (human, UniProt P01589 22-272; P14784 27-551; P31785 23-369); experiment: cell-based or functional assay
T2 sequence (looked up) 1: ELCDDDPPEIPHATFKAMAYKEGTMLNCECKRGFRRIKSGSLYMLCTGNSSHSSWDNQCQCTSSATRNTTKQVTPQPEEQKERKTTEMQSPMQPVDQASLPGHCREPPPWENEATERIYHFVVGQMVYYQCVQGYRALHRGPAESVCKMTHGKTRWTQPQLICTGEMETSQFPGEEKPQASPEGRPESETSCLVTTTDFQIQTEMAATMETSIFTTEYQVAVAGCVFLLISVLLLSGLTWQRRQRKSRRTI
T2 sequence (looked up) 2: T1 sequence (looked up) 1
T2 sequence (looked up) 3: T1 sequence (looked up) 2

[3] = molecular target: T2, IL-2Rαβγ (trimeric high-affinity IL-2 …); experiment: cell-based or functional assay; remark: listed apart in the source
[4] = molecular target: T1, IL-2Rβγ (dimeric intermediate affinity …); experiment: cell-based or functional assay; remark: listed apart in the source
[5] = molecular target: T3, Human IL-2 Receptor alpha, Fc-Tag (Symansis, New Zealand) (human, UniProt P01589 22-240); experiment: calculated from the SPR KD values of Example 15; reference protein 5a
T3 construct: extracellular domain; Bought reagent; also called IL-2Rα; IL-2Rα-Fc; not shown: Fc-Tag (captured by anti-human IgG (Fc) antibody)
T3 sequence (looked up): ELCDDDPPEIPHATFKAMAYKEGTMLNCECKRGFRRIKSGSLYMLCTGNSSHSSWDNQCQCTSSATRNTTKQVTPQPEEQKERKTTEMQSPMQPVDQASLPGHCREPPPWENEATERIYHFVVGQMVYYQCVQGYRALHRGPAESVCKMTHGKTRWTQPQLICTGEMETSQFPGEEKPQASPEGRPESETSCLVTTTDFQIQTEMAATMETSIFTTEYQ
Description: For the determination of binding kinetics to IL-2Rα the following chip preparation was used: Human IL-2 Receptor alpha, Fc-Tag (Symansis, New Zealand) was diluted in HBS-EP running buffer (GE Healthcare, 10 mM HEPES, 150 mM NaCl, 3 mM EDTA, 0.05% Surfactant P20, pH 7.4) to approx. 0.25 µg/mL and immobilized at a flow rate of 50 µL/min for 60 s to achieve 90 - 110 response units (RU).
For the determination of binding kinetics to IL-2Rβ the following chip preparation was used: Human IL-2 Receptor beta, Fc-Tag (Symansis, New Zealand) was diluted in HBS-EP running buffer (GE Healthcare, 10 mM HEPES, 150 mM NaCl, 3 mM EDTA, 0.05% Surfactant P20, pH 7.4) to around 0.25 µg/mL and immobilized at a flow rate of 50 µL/min for 60 s to achieve 300 - 330 response units (RU).
(50 µL/min flow rate, 60 s contact time, 300 s dissociation time). Double referenced data (subtracted data from the reference flow cell and the buffer only samples) was analysed via a kinetic fit (1:1 binding model) to determine KD, kₐ and kd. Regeneration after each cycle was performed with 3 M MgCl₂.

B1: protein 6 (ligand)
chain: APTSSSTKKTQLQLEHLLLDLQMILNGINNYKNPKLTFGNSTKFYMPKKATELKHLQCLEEELKPLEEVLNLAQSKNFHLRPRDLISNINVIVLELKGSETTFMCEYADETATIVEFLNRWITFSQSIISTLT
modifications: glycosylated (same sequence with the N-glycosylation motif FGNST as protein 1f); glycan sites not analysed separately for protein 6
- EC50, pSTAT5 MFI, CD8 (human PBMCs) [1]: 78.8 ng/mL
- EC50, pSTAT5 MFI, NK (human PBMCs) [1]: 11.7 ng/mL
- EC50, pSTAT5 MFI, Treg (human PBMCs) [2]: 38 ng/mL
- fold lower potency than 1d, pSTAT5, Tregs (human PBMCs) [3]: ~1900 fold
- EC50 HH cells, STAT5 phosphorylation [4]: 0.0966 µg/mL
- ratio of Ratio protein 6 to Ratio protein 5a (KD to IL-2Rα / KD to IL-2Rβ) [5]: > 100
